Experimental data from patent US20080206230A1 (INSTITUT PASTEUR, published 2008).

Molecular target: T1, rat NEP ecto-endopeptidase (renal tissue) (rat, UniProt P07861 2-750)
T1 sequence (looked up): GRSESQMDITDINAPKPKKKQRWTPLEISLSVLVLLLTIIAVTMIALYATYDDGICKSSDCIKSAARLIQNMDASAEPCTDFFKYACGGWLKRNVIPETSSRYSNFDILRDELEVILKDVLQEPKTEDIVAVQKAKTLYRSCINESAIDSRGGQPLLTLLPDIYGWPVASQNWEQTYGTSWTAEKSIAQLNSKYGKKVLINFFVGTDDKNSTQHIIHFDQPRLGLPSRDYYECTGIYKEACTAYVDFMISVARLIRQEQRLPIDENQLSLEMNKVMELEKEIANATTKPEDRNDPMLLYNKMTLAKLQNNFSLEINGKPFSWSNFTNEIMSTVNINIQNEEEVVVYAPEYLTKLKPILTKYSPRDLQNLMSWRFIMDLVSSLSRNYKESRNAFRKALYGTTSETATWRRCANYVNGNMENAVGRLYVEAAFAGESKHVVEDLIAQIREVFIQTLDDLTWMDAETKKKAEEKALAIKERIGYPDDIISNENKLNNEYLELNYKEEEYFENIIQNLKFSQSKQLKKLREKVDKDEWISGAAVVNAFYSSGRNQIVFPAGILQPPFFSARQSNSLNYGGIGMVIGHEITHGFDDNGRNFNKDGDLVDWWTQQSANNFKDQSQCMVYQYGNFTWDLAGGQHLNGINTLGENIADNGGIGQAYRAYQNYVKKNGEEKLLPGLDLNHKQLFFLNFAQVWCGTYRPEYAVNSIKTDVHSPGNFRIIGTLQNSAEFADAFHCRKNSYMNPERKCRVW
Experiment: cell-based or functional assay

QRFSR [QRFSR peptide]
inhibitory efficiency towards rat renal NEP relative to human cell surface NEP (LNCaP): ≥ 10 fold lower
